1 molecule from patent publication US9823254B2, “Reversible chemoenzymatic labeling of native and fusion carrier protein motifs” (The Regents of the University of California, priority 2012, dated 2017) can be followed below.

Where “and” joins values, the source holds several entries; their conditions need not be identical. Equal values may be shown once.

For orientation: Km means the concentration of substrate that gives half-maximal velocity. The term kcat denotes the number of substrate molecules converted per active site and unit of time at saturation.

The test system of one data set is P. agglomerans AdmA. Put plainly: AcpH qualitative CP activity, gel-based, crypto-CP. The format is biochemical. As to conditions: NRPS; crypto-CP (coumarin-PPant), overnight, 37° C., 1 μM AcpH.
The target of a further data set is holo-ACP (E. coli) (Escherichia coli, UniProt P0A6A8). Particulars: 37° C., HPLC detection, [AcpH] 1 (CyAcpH 0.005) μm.
The next data set concerns S. oneidensis AcpP. The experiment in a line: AcpH qualitative CP activity, holo-SoAcpP, Urea-PAGE. The format is biochemical. As to conditions: FAS, Urea-PAGE gel-shift, shorter timescale.
A further data set deals with T1, S. coelicolor ActACP (Streptomyces coelicolor, UniProt Q02054).
T1 construct: made in house
T1 sequence (Q02054 whole entry, looked up): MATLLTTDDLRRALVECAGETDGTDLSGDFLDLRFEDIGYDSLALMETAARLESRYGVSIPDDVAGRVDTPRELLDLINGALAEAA
Put plainly: AcpH qualitative CP activity, gel-based, crypto-CP. The format is biochemical. Particulars: PKS; crypto-CP (coumarin-PPant), overnight, 37° C., 1 μM AcpH.

A further data set concerns the target T2, A. parasiticus PksA (Aspergillus parasiticus, UniProt Q12053).
T2 construct: made in house
Put plainly: AcpH qualitative CP activity, gel-based, crypto-CP. The format is biochemical. Particulars: PKS; crypto-CP (coumarin-PPant), overnight, 37° C., 1 μM AcpH.

In the next data set the target is P. aeruginosa AcpP (Pseudomonas aeruginosa, UniProt O54439). Particulars: FAS; crypto-CP (coumarin-PPant), overnight, 37° C., 1 μM AcpH. The method, then: (§1) Unless otherwise noted, all coumarin-PPant labeling proceeded as follows: apo-carrier protein or peptide at 50-200 μM were labeled in 50 mM Na-HEPES pH 7.5, 10 mM MgCl2, 8 mM ATP, 0.1 μM MBP-CoaA/D/E, 0.1 μM native Sfp, and 1.1 equivalents of coumarin-pantetheine at 37° C. overnight. Crypto-protein samples were repurified using standard IMAC techniques in pH 8 lysis buffer with Ni-NTA resin, and spin-concentrated/buffer exchanged to remove imidazole and concentrate with 0.5 mL 3 kDa MWCO cellulose filters. Crypto-peptide samples were purified with HPLC, lyophilized, and redissolved in 50 mM TrisCl pH 8.0 prior to analysis.
(§2) Following AcpH treatment, an equal volume of 2×SDS-PAGE loading dye was added to crypto-carrier proteins samples and heated 5 min at 90° C., and run on 12% or 15% SDS-PAGE. Gels were fixed in 50/40/10% water/methanol/acetic acid for 30 minutes, and washed with water three times before UV imaging. Holo-carrier protein reactions were analyzed with Urea-PAGE as previously described.^6 All protein gels were Coomassie stained for evaluating total protein. Crypto-peptides were evaluated on Urea-PAGE, and were imaged immediately after running with no gel fixing.

For the next data set, the target named is E. coli AcpP (Escherichia coli, UniProt P0A6A8). Particulars: FAS; crypto-CP (coumarin-PPant), overnight, 37° C., 1 μM AcpH. The procedure: as §1, §2
The next data set has as its target M. tuberculosis AcpM (Mycobacterium tuberculosis, UniProt P9WQF3). As to conditions: FAS; crypto-CP (coumarin-PPant), overnight, 37° C., 1 μM AcpH.
The next data set concerns A. orientalis CepK. The experiment in a line: AcpH qualitative CP activity, gel-based, crypto-CP. The format is biochemical. As to conditions: NRPS; crypto-CP (coumarin-PPant), overnight, 37° C., 1 μM AcpH.
For another data set, the target named is P. syringae SyrB1 (Pseudomonas syringae pv. syringae, UniProt Q52400). Put plainly: AcpH qualitative CP activity, gel-based, crypto-CP. It is filed as biochemical. As to conditions: NRPS; crypto-CP (coumarin-PPant), overnight, 37° C., 1 μM AcpH.
The subject of the next data set is P. falciparum ACP. Put plainly: AcpH qualitative CP activity, gel-based, crypto-CP. It is filed as biochemical. As to conditions: FAS; crypto-CP (coumarin-PPant), overnight, 37° C., 1 μM AcpH.
For another data set, the target named is T3, L majuscula JamC (Moorena producens, UniProt Q6E7K7).
T3 construct: made in house
The experiment in a line: AcpH qualitative CP activity, gel-based, crypto-CP. As to conditions: PKS; crypto-CP (coumarin-PPant), overnight, 37° C., 1 μM AcpH. The format is biochemical.

For the next data set, the target named is E. coli ACP (AcpP) (Escherichia coli, UniProt P0A6A8). As to conditions: SDS-PAGE.
The target in the next data set is T4, crypto-FITC-YbbR (3) (Bacillus subtilis, UniProt O34659).
T4 construct: made in house; host or cells: enzymatic labelling of FITC-ybbR peptide with Sfp and rhodamine-CoA
T4 sequence (O34659 whole entry, looked up): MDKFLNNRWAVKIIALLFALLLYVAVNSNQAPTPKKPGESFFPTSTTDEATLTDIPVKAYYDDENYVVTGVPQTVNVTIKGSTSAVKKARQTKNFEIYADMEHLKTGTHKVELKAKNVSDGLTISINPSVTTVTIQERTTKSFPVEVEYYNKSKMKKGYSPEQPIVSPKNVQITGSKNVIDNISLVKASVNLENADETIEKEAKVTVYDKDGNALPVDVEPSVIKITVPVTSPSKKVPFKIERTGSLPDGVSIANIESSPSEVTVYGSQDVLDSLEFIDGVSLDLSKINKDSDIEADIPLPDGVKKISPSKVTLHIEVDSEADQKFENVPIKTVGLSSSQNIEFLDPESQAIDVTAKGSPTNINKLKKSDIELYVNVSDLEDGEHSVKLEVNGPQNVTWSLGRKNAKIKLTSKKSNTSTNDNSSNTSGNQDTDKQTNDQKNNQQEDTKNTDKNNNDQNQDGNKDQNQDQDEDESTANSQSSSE
Put plainly: FRET-quench microwell AcpH kinetics. It is filed as biochemical. As to conditions: 37° C., FRET-quench microwell plate assay, [AcpH] 1 μm. The procedure:
Preparation of rhodamine-labeled FITC-ybbR proceeded via reaction of 200 μM FITC-ybbR with 200 μM rhodamine WT-CoA synthesized as described previously^33 with 1 μM Sfp in 50 mM HEPES pH 7.5 and 10 mM MgCl2 for 2 hours at 37° C.
Rhodamine-labeled FITC-Ybbr as well as standard 1:1 apo-FITC-ybbR:rhodamine-CoA was subjected to an 11-point serial dilution in 50 mM TrisCl pH 8.0 to achieve final concentrations of 400-0.4 μM. […] Total reaction volumes were 50 μL and utilized a 96-well Costar 3694 plate (Corning, Lowell, Mass.). Following mixing, reactions were centrifuged for 2 minutes at 1500 rpm, and incubated at 37° C. over 4 hours in a HTS 7000 plus Bioassay Reader (Perkin Elmer, Waltham, Mass.) in kinetic mode. Comparison of enzyme reactions to buffer blank and 1:1 apo-FITC-ybbR:rhodamine-CoA standard allowed calculation of product formation and determination of Michaelis-Menten kinetics using GraphPad Prism.

Another data set concerns P. agglomerans AdmI. The experiment in a line: AcpH qualitative CP activity, gel-based, crypto-CP. It is filed as biochemical. Particulars: PKS; crypto-CP (coumarin-PPant), overnight, 37° C., 1 μM AcpH.
A further data set concerns G. fujikuroi Pks4. The experiment in a line: AcpH qualitative CP activity, gel-based, crypto-CP. It is filed as biochemical. As to conditions: PKS; crypto-CP (coumarin-PPant), overnight, 37° C., 1 μM AcpH.

Description for E. coli ACP (AcpP): 50 mL LB media supplemented with 25 μM calcium D-pantothenate, 50 mM D-glucose, and 50 μg/mL kanamycin utilized previously. Media was inoculated with 1 mL of overnight DK554 starter culture and grown to OD=0.4. IPTG was added at a concentration of 1 mM to the media and was shaken for 5 hours at 37° C. Media was centrifuged at 4000 rpm at 4° C. for 30 minutes to pellet cells. Cell pellets were resuspended in 25 mM TrisCl pH 7.5, 250 mM NaCl, 0.1 mg/mL lysozyme, 10 μM pepstatin, 10 μM leupeptin and passed twice through a French pressure device at 1000 psi. Removal of coumarin-pantetheine from ACP in 5 mL lysate used 10 μM MBP-AcpH fusion in 600 mL AcpH reaction buffer (50 mM TrisCl, pH 8.0, 100 mM NaCl, 10% glycerol, 15 mM MgCl2, 1 mM MnCl2) within a 3 kDa MWCO dialysis bag at 37° C. overnight.
E. coli DK554 cell lysate with total protein concentration of approximately 2 mg/mL was added to the volume of premade 10×PPTase reaction buffer (500 mM Na-HEPES, 100 mM MgCl2, pH 7.4) that brought the total reaction concentration to 50 mM Na-HEPES pH 7.4, 10 mM MgCl2, 5 μM of coumarin-CoA, and 2 μM Sfp. […]
Description for holo-ACP (E. coli): Holo-E. coli AcpP was prepared as a serial dilution in 50 mM TrisCl, 250 mM NaCl, 30 mM MgCl2, and 2 mM MnCl2. […] CyAcpH was prepared at 10 nM in the same AcpH buffer. […] Reactions were transferred to prewarmed shaker at 37° C. and were quenched with 100 mM EDTA after 10 minutes. Samples were centrifuged and evaluated at 210 nm with HPLC using an acetonitrile gradient to determine apo-AcpP product formation. Michaelis-Menten kinetics were calculated using GraphPad Prism (GraphPad Software, La Jolla, Calif.).
E. coli holo-ACP was diluted into 50 mM TrisCl pH 8.0, 250 mM NaCl, 10% glycerol, 30 mM MgCl2 and 2 mM MnCl2 buffer to a concentration of 800 μM. […] AcpH was diluted from MOPS lysis buffer into 50 mM TrisCl pH 8.0, 250 mM NaCl, 10% glycerol and added to an equal volume of the holo-ACP serial dilution to initiate the reaction. Reaction tubes were transferred to a pre-warmed rack at 37° C. and shaken for the duration of the experiment. […] All samples were frozen at -80° C. until evaluated by HPLC.
Kinetics samples were mixed briefly with finger flicking, and centrifuged at 13000 rpm for 10 minutes at room temperature prior to transferring contents into HPLC vials. 20 μL of each reaction time point was injected on an Agilent 1100 series HPLC with column (Burdick & Jackson OD5 #9575, 25 cm×4.6 mm ID) using an acetonitrile/water gradient. Both water and acetonitrile contained 0.05% TFA. Method gradient for each injection: 0-5 min with 10% acetonitrile, 5-30 min with 10-100% acetonitrile, 30-35 min with 100% acetonitrile, 35-37 min with 100-10% acetonitrile, 37-40 min with 10% acetonitrile. HPLC-grade solvents (J. T. Baker, Phillipsburg, N.J.) were used exclusively. Apo- & holo-ACP protein standards were used to validate the retention times identified using 210 nm UV light at approximately 21 and 19 minutes, respectively. Peak integration was performed for all samples, and substrate turnover was calculated from the ratio of apo- to holo-ACP present in the HPLC trace and the known concentration of total ACP in reaction samples. Calculated rates for AcpH versus substrate concentration were obtained through Excel data analysis and graphed in Prism GraphPad using the “Michaelis-Menten” function for enzyme kinetics, with a zero data point added for substrate concentration of 0 μM*min-1 and 0 μM substrate for AcpH graphs.

B1: PaAcpH: acyl carrier protein hydrolase (AcpH) from P. aeruginosa PAO1, NP13 253043.1 (protein)
chain: MNYLAHLHLGGPQPAQLLGSLYGDFVKGRLQGQWPDEIERAIQLHRRIDAFTDSHPLVHAAKRRFPLERRRFAGVLLDVFFDHCLARDWNDYADEPLPQFVERVYGTLRTASPLPERLARIAPRMAAQDWLGSYREFAVLREVLGGMSRRLSRPHLLDGSWEELAQRYDDLSADFRAFYPQLQAFALSQR
Consider B1, for which the “AcpH qualitative CP activity” value is “no” with P. agglomerans AdmA; “YES^†” with S. oneidensis AcpP; “no” with S. coelicolor ActACP; “YES” in the data set with A. parasiticus PksA; “YES” with P. aeruginosa AcpP; “YES” in the data set with E. coli AcpP. Further, the “AcpH qualitative CP activity” value is “YES” with M. tuberculosis AcpM; “no” in the data set on A. orientalis CepK; “no” with P. syringae SyrB1; “YES” in the data set with P. falciparum ACP; “YES” with L majuscula JamC; “no” in the data set on P. agglomerans AdmI. Further, in the data set with G. fujikuroi Pks4, the “AcpH qualitative CP activity” value is listed as “no”. Further, the Km in the data set with holo-ACP (E. coli) was determined as 12 ± 2 µM; with crypto-FITC-YbbR (3), 177 µM. The values for the Vmax with holo-ACP (E. coli) and with crypto-FITC-YbbR (3) were 0.59 ± 0.02 min⁻¹ and 0.008 ± 0.016 min⁻¹, respectively. The kcat with holo-ACP (E. coli) was 0.01 s⁻¹ and 0.00983 ± 0.00033 s⁻¹; in the data set with crypto-FITC-YbbR (3), 0.00013 ± 0.000267 s⁻¹. Besides, in the data set with E. coli ACP (AcpP) (coumarin-labeled E. coli DK554 lysate, 254 nm), the “removal of coumarin-PPT from ACP” value was “uniformly removed”. Further, in the data set with E. coli ACP (AcpP) (rhodamine-labeled ACP, 532 nm), the “removal of rhodamine label from ACP” value was “can also be removed”.
